Results published in doi:10.1101/2021.08.09.455663.

Experiments:
[1] = target: GST-tagged TgIST-R2 (Toxoplasma gondii); test: BLI
[2] = target: phosphorylated STAT1 dimer (pSTAT1d) (UniProt P42224); test: BLI

## phosphorylated STAT1 dimer (pSTAT1d) (from UniProt P42224 132-713) (domain or fragment)
[1]
  Kd: 22 nM

## TgIST-R2 peptide after GST removal (domain or fragment)
[2]
  Kd: 330 nM
